Assay results reported in patent US20210130436A1 (published 2021).

Assays:
[1] = molecular target: T1, human PD-L1 (human, UniProt Q9NZQ7 19-290); assay: flow cytometry; MFI on CHO/PD-L1 over MFI on Jurkat (CD28), 33.3 nM
T1 construct: whole, on cells; also called huPD-L1
T1 sequence (Q9NZQ7 19-290): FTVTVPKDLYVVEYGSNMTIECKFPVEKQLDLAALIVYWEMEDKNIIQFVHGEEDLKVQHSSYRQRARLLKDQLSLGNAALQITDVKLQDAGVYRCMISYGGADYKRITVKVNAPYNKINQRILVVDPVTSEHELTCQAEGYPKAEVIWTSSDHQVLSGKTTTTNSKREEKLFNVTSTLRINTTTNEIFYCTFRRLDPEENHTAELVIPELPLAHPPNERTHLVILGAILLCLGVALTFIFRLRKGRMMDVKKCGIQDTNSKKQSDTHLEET

[2] = molecular target: T2, human CTLA-4 (human, UniProt P16410 36-223); assay: flow cytometry, CHO cells stably expressing huCTLA4, 33.3 nM, PE anti-human Fc
T2 construct: whole, on cells; also called huCTLA4
T2 sequence (P16410 36-223): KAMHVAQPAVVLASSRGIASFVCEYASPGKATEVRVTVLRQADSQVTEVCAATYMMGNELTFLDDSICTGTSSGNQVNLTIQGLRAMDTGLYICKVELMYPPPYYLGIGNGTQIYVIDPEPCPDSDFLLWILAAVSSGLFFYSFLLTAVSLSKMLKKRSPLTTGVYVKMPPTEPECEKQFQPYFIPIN

[3] = molecular target: T1, human PD-L1; assay: flow cytometry, CHO cells stably expressing huPD-L1, 33.3 nM, PE anti-human Fc
[4] = molecular target: T3, human CD28 (human, UniProt P10747 19-220); assay: flow cytometry, Jurkat/IL2 reporter cells (endogenous CD28), 33.3 nM, PE anti-human Fc
T3 construct: whole, on cells; Endogenous CD28 of Jurkat/IL2 reporter cells

[5] = molecular target: T4, human CTLA4 (huCTLA4), full-length, stably expressed on CHO cells (human, UniProt P16410 36-223); assay: flow cytometry, CHO cells expressing huCTLA4
T4 construct: whole, on cells
T4 sequence (P16410 36-223): as above

[6] = molecular target: T5, human PD-L1 (huPD-L1), full-length, stably expressed on CHO cells (human, UniProt Q9NZQ7 19-290); assay: flow cytometry, CHO cells expressing huPD-L1
T5 construct: whole, on cells
T5 sequence (Q9NZQ7 19-290): as the sequence (Q9NZQ7 19-290) above

[7] = molecular target: T6, CD28, endogenously expressed on Jurkat/IL2 reporter cells (human, UniProt P10747 19-220); assay: flow cytometry, Jurkat/IL2 reporter cells (endogenous CD28)
T6 construct: whole, on cells

[8] = molecular target: T5, human PD-L1 (huPD-L1), full-length, …; assay: flow cytometry; MFI on PD-L1 CHO cells over MFI on Jurkat cells (CD28)
[9] = molecular target: T4, human CTLA4 (huCTLA4), full-length, …; assay: flow cytometry, CHO cells expressing huCTLA4; MFI against WT CD80 of the table
[10] = molecular target: T5, human PD-L1 (huPD-L1), full-length, …; assay: flow cytometry, CHO cells expressing huPD-L1; MFI against WT CD80 of the table
[11] = molecular target: T6, CD28, endogenously expressed on …; assay: flow cytometry, Jurkat/IL2 reporter cells (endogenous CD28); MFI against WT CD80 of the table
[12] = molecular target: T7, human CD28 (human, UniProt P10747 19-220); assay: flow cytometry on Jurkat cells (CD28)
T7 construct: Endogenous CD28 on Jurkat/IL2 reporter cells

[13] = molecular target: T8, human CTLA-4 (human, UniProt P16410 36-223); assay: flow cytometry on CHO cells stably expressing CTLA4
T8 construct: also called huCTLA4
T8 sequence (P16410 36-223): as the sequence (P16410 36-223) above

[14] = molecular target: T9, human PD-L1 (human, UniProt Q9NZQ7 19-290); assay: flow cytometry on CHO cells stably expressing PD-L1
T9 construct: also called huPD-L1; CD274
T9 sequence (Q9NZQ7 19-290): as the sequence (Q9NZQ7 19-290) above

| Binder | Ratio of PDL1:CD28 [1] [ratio] | Fold change to WT CD80 [2] [fold] | MFI at 33.3 nM [2] [MFI] | Fold change to WT [3] [fold] | MFI at 33.3 nM [3] [MFI] | Fold change to WT [4] [fold] | MFI at 33.3 nM [4] [MFI] | MFI at 33.3 nM [5] [MFI] | MFI at 33.3 nM [6] [MFI] | MFI at 33.3 nM [7] [MFI] | Ratio of PDL1:CD28 [8] [ratio] | Fold change to WT CD80 [9] [fold] | Fold change to WT CD80 [10] [fold] | Fold change to WT CD80 [11] [fold] | MFI at 33.3 nM [12] [MFI] | MFI at 33.3 nM [13] [MFI] | MFI at 33.3 nM [14] [MFI] |
| --- | --- | --- | --- | --- | --- | --- | --- | --- | --- | --- | --- | --- | --- | --- | --- | --- | --- |
| E24D/Q27R/E35D/T41S/M47V/L85Q CD80 IgV-Fc (Fc fusion, not shown: a dimerising Fc or GST) VIHVTKEVKEVATLSCGHNVSVEDLARTRIYWQKDKKMVLSMMSGDVNIWPEYKNRTIFDITNNLSIVILALRPSDEGTYECVVQKYEKDAFKREHLAEVTLSVKAD | 44 | 13.5 | 13900 | 34.3 | 2860 | 1.6 | 66 | – | – | – | – | – | – | – | – | – | – |
| variant CD80 IgV-Fc E35D/T41S/D46E/M47I/V68M/K93R/E95V (Fc fusion, not shown: small tags and cut ends; a dimerising Fc or GST) VIHVTKEVKEVATLSCGHNVSVEELAQTRIYWQKDKKMVLSMMSGEINIWPEYKNRTIFDITNNLSIMILALRPSDEGTYECVVLKYEKDAFRRVHLAEVTLSVKAD | – | – | – | – | – | – | – | 18400 | 14800 | 476 | 31.1 | 10.5 | 287 | 15.2 | – | – | – |
| Q33R/M47V/T62N/A71G CD80 IgV-Fc (Fc fusion, not shown: a dimerising Fc or GST) VIHVTKEVKEVATLSCGHNVSVEELAQTRIYWRKEKKMVLTMMSGDVNIWPEYKNRTIFDINNNLSIVILGLRPSDEGTYECVVLKYEKDAFKREHLAEVTLSVKAD | 719 | 0.3 | 308 | 146 | 12200 | – | – | – | – | – | – | – | – | – | – | – | – |
| H18Y/V22A/E35D/T41S/M47V/T62N/A71G/A91G CD80 IgV-Fc (Fc fusion, not shown: a dimerising Fc or GST) VIHVTKEVKEVATLSCGYNVSAEELAQTRIYWQKDKKMVLSMMSGDVNIWPEYKNRTIFDINNNLSIVILGLRPSDEGTYECVVLKYEKDGFKREHLAEVTLSVKAD | 5 | 10 | 10300 | 101 | 8460 | 38.5 | 1590 | – | – | – | – | – | – | – | – | – | – |
| variant CD80 IgV-Fc H18Y/E35D/V68M/T79M/L85M (Fc fusion, not shown: small tags and cut ends; a dimerising Fc or GST) VIHVTKEVKEVATLSCGYNVSVEELAQTRIYWQKDKKMVLTMMSGDMNIWPEYKNRTIFDITNNLSIMILALRPSDEGMYECVVMKYEKDAFKREHLAEVTLSVKAD | – | – | – | – | – | – | – | 16300 | 14900 | 1040 | 14.3 | 9.3 | 290 | 33.2 | – | – | – |
| variant CD80 IgV-Fc E35D/M47V/N48K/V68M/L85M (Fc fusion, not shown: small tags and cut ends; a dimerising Fc or GST) VIHVTKEVKEVATLSCGHNVSVEELAQTRIYWQKDKKMVLTMMSGDVKIWPEYKNRTIFDITNNLSIMILALRPSDEGTYECVVMKYEKDAFKREHLAEVTLSVKAD | – | – | – | – | – | – | – | 15600 | 7620 | 245 | 31.1 | 8.9 | 148 | 7.8 | – | – | – |
| variant CD80 IgV-Fc H18Y/V22D/E35D/M47V/N48K/V68M (Fc fusion, not shown: small tags and cut ends; a dimerising Fc or GST) VIHVTKEVKEVATLSCGYNVSDEELAQTRIYWQKDKKMVLTMMSGDVKIWPEYKNRTIFDITNNLSIMILALRPSDEGTYECVVLKYEKDAFKREHLAEVTLSVKAD | – | – | – | – | – | – | – | 15800 | 12900 | 257 | 50.1 | 9 | 250 | 8.2 | – | – | – |
| variant CD80 IgV-Fc E35D/M47V/N48K/V68M/A71G/L85M (Fc fusion, not shown: small tags and cut ends; a dimerising Fc or GST) VIHVTKEVKEVATLSCGHNVSVEELAQTRIYWQKDKKMVLTMMSGDVKIWPEYKNRTIFDITNNLSIMILGLRPSDEGTYECVVMKYEKDAFKREHLAEVTLSVKAD | – | – | – | – | – | – | – | 16600 | 22800 | 302 | 75.4 | 9.5 | 442 | 9.6 | – | – | – |
| E35D/M47L/V68M/A71G/L85Q/D90G CD80 IgV-Fc (Fc fusion, not shown: a dimerising Fc or GST) VIHVTKEVKEVATLSCGHNVSVEELAQTRIYWQKDKKMVLTMMSGDLNIWPEYKNRTIFDITNNLSIMILGLRPSDEGTYECVVQKYEKGAFKREHLAEVTLSVKAD | 12 | 10.1 | 10300 | 202 | 16800 | 33.9 | 1400 | – | – | – | – | – | – | – | – | – | – |
| variant CD80 IgV-Fc E35D/M47L/Y53F/V68M/A71G/K93R/E95V (Fc fusion, not shown: small tags and cut ends; a dimerising Fc or GST) VIHVTKEVKEVATLSCGHNVSVEELAQTRIYWQKDKKMVLTMMSGDLNIWPEFKNRTIFDITNNLSIMILGLRPSDEGTYECVVLKYEKDAFRRVHLAEVTLSVKAD | – | – | – | – | – | – | – | 16000 | 25000 | 383 | 65.3 | 9.1 | 486 | 12.2 | – | – | – |
| S15T/H18Y/E35D/M47V/T62A/N64S/A71G/L85Q/D90N CD80 IgV-Fc (Fc fusion, not shown: a dimerising Fc or GST) VIHVTKEVKEVATLTCGYNVSVEELAQTRIYWQKDKKMVLTMMSGDVNIWPEYKNRTIFDIANSLSIVILGLRPSDEGTYECVVQKYEKNAFKREHLAEVTLSVKAD | 13 | 10.7 | 11000 | 166 | 13900 | 25.9 | 1070 | – | – | – | – | – | – | – | – | – | – |
| variant CD80 IgV-Fc E35D/M43I/M47L/V68M (Fc fusion, not shown: small tags and cut ends; a dimerising Fc or GST) VIHVTKEVKEVATLSCGHNVSVEELAQTRIYWQKDKKMVLTMISGDLNIWPEYKNRTIFDITNNLSIMILALRPSDEGTYECVVLKYEKDAFKREHLAEVTLSVKAD | – | – | – | – | – | – | – | 16200 | 16900 | 1520 | 11.1 | 9.3 | 328 | 48.3 | – | – | – |
| E35D/D46E/M47L/V68M/L85Q/F92L CD80 IgV-Fc (Fc fusion, not shown: a dimerising Fc or GST) VIHVTKEVKEVATLSCGHNVSVEELAQTRIYWQKDKKMVLTMMSGELNIWPEYKNRTIFDITNNLSIMILALRPSDEGTYECVVQKYEKDALKREHLAEVTLSVKAD | 863 | 0.2 | 214 | 158 | 13200 | – | – | – | – | – | – | – | – | – | – | – | – |
| CD80 E35D/M47V/N48K/V68M/K89N IgV-Fc, (EAAAK)3 linker (Fc fusion, not shown: a dimerising Fc or GST) VIHVTKEVKEVATLSCGHNVSVEELAQTRIYWQKDKKMVLTMMSGDVKIWPEYKNRTIFDITNNLSIMILALRPSDEGTYECVVLKYENDAFKREHLAEVTLSVKADEAAAKEAAAKEAAAK | – | – | – | – | – | – | – | – | – | – | – | – | – | – | 1280 | 27100 | 24500 |
